Experimental data reported in publication PMC4876393, “Structure of the Dictyostelium Myosin-II Heavy Chain Kinase A (MHCK-A) α-kinase domain apoenzyme reveals a novel autoinhibited conformation” (Scientific Reports, 2016).
One block for each molecule: values may come before it. Non-standard residues stand in square brackets, D forms with d. Residues, ends and D or L forms follow the SMILES beside them. No end group written: not given here. pT = C[C@@H](OP(=O)(O)O)[C@H](N)C(=O)O

Experiments:
[1] = test system: T1, Nc1ncnc2c1ncn2[C@@H]1O[C@H](COP(=O)(O)OP(=O)(O)OP(=O)(O)O)[C@@H](O)[C@H]1O; experiment: Radiometric kinase assay with [γ-32P]ATP and 20 μM myelin basic protein as phosphate acceptor (P81 paper) at 22 °C in 2 mM MgCl2, 1 mM dithiothreitol, 20 mM TES, pH 7.0.; assay type: biochemical
T1 construct: A-CAT: alpha-kinase domain and Thr825 autophosphorylation site of MHCK-A
Method: (§1) Assays were carried out at 22 °C in a buffer containing 2 mM MgCl2, 1 mM dithiothreitol and 20 mM TES, pH 7.0. Kinase assays contained 20 μM myelin basic protein (MBP), 0.5–2 μM A-CAT and 200 μM [γ-^32P]ATP (specific activity 100 cpm/pmol). At each time point, 20 μl aliquots of the reaction mixture were spotted onto squares of Whatman P81 phosphocellulose paper, which were then washed 1% phosphoric acid, immersed in ScintiVerse Universal LS Mixture (Fisher Scientific), and counted using a Beckman LS 9000 scintillation counter. Assays to measure A-CAT-Δ809 activity in the presence of the QQG(p)TMVMPD and QQG(p)TMSMPD peptides were carried out as described. ATPase activity was assayed using 250 μM ATP and release of inorganic phosphate (Pi) was measured using the Pi ColorLock Gold phosphate detection system (Innova Biosciences). Data from the initial linear portion of the time courses were used to calculate kinase and ATPase activity. Nucleotide binding assays using mant-ATP and mant-ADP were carried out as previously described. Results represent the mean and standard deviation of at least 3 separate experiments.

[2] = test system: T1, Nc1ncnc2c1ncn2[C@@H]1O[C@H](COP(=O)(O)OP(=O)(O)OP(=O)(O)O)[C@@H](O)[C@H]1O; experiment: ATPase assay by inorganic phosphate release (Pi ColorLock Gold) at 22 °C in 2 mM MgCl2, 1 mM dithiothreitol, 20 mM TES, pH 7.0.; assay type: biochemical
Method: as §1

D663S = biological target: T2, D663S (Dictyostelium discoideum, UniProt P42527, D663S); experiment: Nucleotide binding assay with fluorescent mant-ATP on purified A-CAT, carried out as previously described (ref 51); at least 3 separate experiments.; details: read-out: mant-ATP Kd; SD, n = 3
T2 construct: gene mhkA; A-CAT: alpha-kinase domain and Thr825 autophosphorylation site of MHCK-A
T2 sequence (P42527 552-841 D663S): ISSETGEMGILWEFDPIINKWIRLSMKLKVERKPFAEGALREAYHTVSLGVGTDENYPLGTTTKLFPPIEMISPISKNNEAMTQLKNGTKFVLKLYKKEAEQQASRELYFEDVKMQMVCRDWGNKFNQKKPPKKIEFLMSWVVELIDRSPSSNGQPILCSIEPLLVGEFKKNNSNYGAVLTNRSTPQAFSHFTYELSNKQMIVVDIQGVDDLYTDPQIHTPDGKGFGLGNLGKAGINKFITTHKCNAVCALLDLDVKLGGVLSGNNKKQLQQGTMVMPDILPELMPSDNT
Method: as §1

Y647A = biological target: T3, Y647A (Dictyostelium discoideum, UniProt P42527, Y647A); experiment: as above; details: read-out: mant-ATP Kd; SD, n = 3
T3 construct: gene mhkA; A-CAT: alpha-kinase domain and Thr825 autophosphorylation site of MHCK-A
T3 sequence (P42527 552-841 Y647A): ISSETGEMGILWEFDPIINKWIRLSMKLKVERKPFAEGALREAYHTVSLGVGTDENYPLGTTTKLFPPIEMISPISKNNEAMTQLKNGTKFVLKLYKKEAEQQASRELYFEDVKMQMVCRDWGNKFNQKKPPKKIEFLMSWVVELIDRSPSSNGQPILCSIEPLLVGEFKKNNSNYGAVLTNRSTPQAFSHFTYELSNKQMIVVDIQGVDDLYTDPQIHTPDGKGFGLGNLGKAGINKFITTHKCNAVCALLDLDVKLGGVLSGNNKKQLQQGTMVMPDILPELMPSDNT
Method: as §1

A-CAT WT = biological target: T4, A-CAT WT (Dictyostelium discoideum, UniProt P42527); experiment: as above; details: SD, n = 3
T4 construct: gene mhkA; A-CAT: alpha-kinase domain and Thr825 autophosphorylation site of MHCK-A; expressed in E. coli
T4 sequence (P42527 552-841): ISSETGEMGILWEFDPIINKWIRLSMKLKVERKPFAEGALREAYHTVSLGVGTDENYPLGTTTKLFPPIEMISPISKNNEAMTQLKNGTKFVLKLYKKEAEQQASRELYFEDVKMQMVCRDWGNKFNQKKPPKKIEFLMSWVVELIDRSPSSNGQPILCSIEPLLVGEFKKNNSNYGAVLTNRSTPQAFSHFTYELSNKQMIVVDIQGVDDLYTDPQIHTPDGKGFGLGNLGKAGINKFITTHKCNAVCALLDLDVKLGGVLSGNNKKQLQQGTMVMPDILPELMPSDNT
Method: as §1

Y647F = biological target: T5, Y647F (Dictyostelium discoideum, UniProt P42527, Y647F); experiment: as above; details: read-out: mant-ATP Kd; SD, n = 3
T5 construct: gene mhkA; A-CAT: alpha-kinase domain and Thr825 autophosphorylation site of MHCK-A
T5 sequence (P42527 552-841 Y647F): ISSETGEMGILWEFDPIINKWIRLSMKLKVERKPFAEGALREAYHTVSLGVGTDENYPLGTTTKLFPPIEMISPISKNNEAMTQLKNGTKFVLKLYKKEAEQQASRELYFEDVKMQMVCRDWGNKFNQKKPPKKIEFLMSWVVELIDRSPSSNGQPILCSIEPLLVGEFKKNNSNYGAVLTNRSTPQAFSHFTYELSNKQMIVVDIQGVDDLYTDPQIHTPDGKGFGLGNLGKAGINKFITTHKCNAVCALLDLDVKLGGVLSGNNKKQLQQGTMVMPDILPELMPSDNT
Method: as §1

D663A = biological target: T6, D663A (Dictyostelium discoideum, UniProt P42527, D663A); experiment: as above; details: read-out: mant-ATP Kd; SD, n = 3
T6 construct: gene mhkA; A-CAT: alpha-kinase domain and Thr825 autophosphorylation site of MHCK-A; expressed in E. coli
T6 sequence (P42527 552-841 D663A): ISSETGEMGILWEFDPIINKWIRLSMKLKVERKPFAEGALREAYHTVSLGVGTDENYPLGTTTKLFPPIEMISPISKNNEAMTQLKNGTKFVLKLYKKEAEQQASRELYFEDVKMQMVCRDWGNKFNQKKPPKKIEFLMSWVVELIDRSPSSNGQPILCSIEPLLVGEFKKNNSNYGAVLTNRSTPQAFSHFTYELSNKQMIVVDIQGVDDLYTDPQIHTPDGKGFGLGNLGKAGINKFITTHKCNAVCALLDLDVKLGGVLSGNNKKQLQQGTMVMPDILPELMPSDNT
Method: as §1

A-CAT-Δ809 = biological target: T7, A-CAT-Δ809 (Dictyostelium discoideum, UniProt P42527); experiment: Activation of truncated A-CAT-Δ809 kinase activity by phosphopeptides (Pi-pocket binding); assay type: biochemical; details: 22 °C, pH 7.0, mean and standard deviation of at least 3 separate experiments
T7 construct: A-CAT encompasses the α-kinase domain and Thr825 autophosphorylation site of MHCK-A; made in house; host or cells: E. coli (printed for A-CAT and A-CAT-D663A)
T7 sequence (P42527 552-809 limits assumed): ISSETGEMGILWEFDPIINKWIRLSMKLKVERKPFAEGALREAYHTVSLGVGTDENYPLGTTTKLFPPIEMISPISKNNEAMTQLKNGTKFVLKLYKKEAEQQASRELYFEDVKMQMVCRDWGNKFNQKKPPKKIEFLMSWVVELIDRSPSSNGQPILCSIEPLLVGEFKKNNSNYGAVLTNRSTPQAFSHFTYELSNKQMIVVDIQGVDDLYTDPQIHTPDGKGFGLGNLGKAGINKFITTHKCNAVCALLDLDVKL
Method: (c) The kinase activity of A-CAT-Δ809 was assayed in the presence of peptides with the sequences QQG(p)TMVMPD (closed circles) or a QQG(p)TMSMPD (open circles). […] Kinase activities are reported as a percentage of wild-type A-CAT activity.
To test whether a hydrophobic residue in the P + 2 position favors binding to the Pi-pocket, experiments were carried out using a truncated A-CAT (A-CAT-Δ809) that lacks the activating Thr825 site of autophosphorylation and two phosphopeptides: one with a valine and one with a serine at the P + 2 position (QQG(p)TMVMPD and QQG(p)TMSMPD) (Fig. 3c).
Assays were carried out at 22 °C in a buffer containing 2 mM MgCl2, 1 mM dithiothreitol and 20 mM TES, pH 7.0. Kinase assays contained 20 μM myelin basic protein (MBP), 0.5–2 μM A-CAT and 200 μM [γ-^32P]ATP (specific activity 100 cpm/pmol). At each time point, 20 μl aliquots of the reaction mixture were spotted onto squares of Whatman P81 phosphocellulose paper, which were then washed 1% phosphoric acid, immersed in ScintiVerse Universal LS Mixture (Fisher Scientific), and counted using a Beckman LS 9000 scintillation counter. Assays to measure A-CAT-Δ809 activity in the presence of the QQG(p)TMVMPD and QQG(p)TMSMPD peptides were carried out as described[29]. […] Data from the initial linear portion of the time courses were used to calculate kinase and ATPase activity.

[3] = biological target: A-CAT-Δ809, truncated A-CAT that lacks the activating Thr825 site of autophosphorylation (Dictyostelium)
[4] = substrate: Nc1ncnc2c1ncn2[C@@H]1O[C@H](COP(=O)(O)OP(=O)(O)OP(=O)(O)O)[C@@H](O)[C@H]1O; experiment: ATPase assay by inorganic phosphate release (Pi ColorLock Gold) at 22 °C in 2 mM MgCl2, 1 mM dithiothreitol, 20 mM TES, pH 7.0.; assay type: biochemical
Method: as §1

[5] = substrate: Nc1ncnc2c1ncn2[C@@H]1O[C@H](COP(=O)(O)OP(=O)(O)OP(=O)(O)O)[C@@H](O)[C@H]1O; experiment: Radiometric kinase assay with [γ-32P]ATP and 20 μM myelin basic protein as phosphate acceptor (P81 paper) at 22 °C in 2 mM MgCl2, 1 mM dithiothreitol, 20 mM TES, pH 7.0.; assay type: biochemical
Method: as §1

[6] = ATPase activity of A-CAT and mutants (phosphate release); assay type: biochemical; details: 22 °C, 2 mM MgCl2, 20 mM TES, pH 7.0; Pi ColorLock Gold phosphate detection; mean and standard deviation of at least 3 separate experiments
Method: as §1

[7] = test system: myelin basic protein (MBP); experiment: Kinase activity of A-CAT and mutants towards myelin basic protein; assay type: biochemical; details: 20 μM MBP, 0.5–2 μM A-CAT, [γ-^32P]ATP; 22 °C, pH 7.0; mean and standard deviation of at least 3 separate experiments
Method: as §1

Molecule: Y647A (Dictyostelium discoideum; Y647A)
Km [1]: 162 ± 38 µM
kcat [1]: 0.00367 ± 0.000333 s⁻¹
kcat [2]: 0.00483 ± 0.00117 s⁻¹

Molecule: CNc1ccccc1C(=O)O[C@H]1[C@@H](O)[C@H](n2cnc3c(N)ncnc32)O[C@@H]1CO[P@@](=O)(O)O[P@](=O)(O)OP(=O)(O)O [mant-ATP, 2'/3'-O-(N-methylanthraniloyl)adenosine 5'-triphosphate]
Kd (D663S): 2.1 ± 0.5 µM
Kd (Y647A): 10 ± 3 µM
Kd (A-CAT WT): 4.8 ± 0.6 µM
Kd (Y647F): 4.3 ± 1 µM
Kd (D663A): 3.2 ± 0.9 µM

Molecule: D663S (Dictyostelium discoideum; D663S)
Km [1]: 29 ± 16 µM
kcat [1]: 0.00103 ± 0.000117 s⁻¹
Km [2]: 31 ± 7 µM
kcat [2]: 0.00733 ± 0.00267 s⁻¹

Molecule: CSCC[C@H](NC(=O)[C@@H](NC(=O)CNC(=O)[C@H](CCC(N)=O)NC(=O)[C@@H](N)CCC(N)=O)[C@@H](C)OP(=O)(O)O)C(=O)N[C@H](C(=O)N[C@@H](CCSC)C(=O)N1CCC[C@H]1C(=O)N[C@@H](CC(=O)O)C(=O)O)C(C)C [QQG(p)TMVMPD] (H-QQG[pT]MVMPD-OH)
Kd (A-CAT-Δ809; hyperbolic fit of A-CAT-Δ809 kinase activity vs peptide, assayed as described in ref [29], 2 mM MgCl2, 1 mM dithiothreitol, 20 mM TES): 38 ± 12 µM
Vmax (A-CAT-Δ809; kinase activity as a percentage of wild-type A-CAT activity, hyperbolic fit): 61 ± 4%

kinase activity of A-CAT-Δ809 assayed in the presence of the peptide; Kd from a hyperbolic curve fit [3]: 98 µM
Molecule: QQG[pT]MSMPD [QQG(p)TMSMPD phosphopeptide]

kinase activity of A-CAT-Δ809 assayed in the presence of the peptide; Kd from a hyperbolic curve fit [3]: 38 µM
Molecule: QQG[pT]MVMPD [QQG(p)TMVMPD phosphopeptide]

B1: A-CAT WT (Dictyostelium discoideum) (protein)
chain: ISSETGEMGILWEFDPIINKWIRLSMKLKVERKPFAEGALREAYHTVSLGVGTDENYPLGTTTKLFPPIEMISPISKNNEAMTQLKNGTKFVLKLYKKEAEQQASRELYFEDVKMQMVCRDWGNKFNQKKPPKKIEFLMSWVVELIDRSPSSNGQPILCSIEPLLVGEFKKNNSNYGAVLTNRSTPQAFSHFTYELSNKQMIVVDIQGVDDLYTDPQIHTPDGKGFGLGNLGKAGINKFITTHKCNAVCALLDLDVKLGGVLSGNNKKQLQQGTMVMPDILPELMPSDNT
notes: A-CAT: alpha-kinase domain and Thr825 autophosphorylation site of MHCK-A; expressed in E. coli
Km [4]: 35 ± 4 µM
kcat [4]: 0.0317 ± 0.00167 s⁻¹
Km [5]: 23 ± 5 µM
kcat [5]: 0.0967 ± 0.00667 s⁻¹

B2: WT: α-kinase domain and Thr825 autophosphorylation site of MHCK-A (protein)
chain: ISSETGEMGILWEFDPIINKWIRLSMKLKVERKPFAEGALREAYHTVSLGVGTDENYPLGTTTKLFPPIEMISPISKNNEAMTQLKNGTKFVLKLYKKEAEQQASRELYFEDVKMQMVCRDWGNKFNQKKPPKKIEFLMSWVVELIDRSPSSNGQPILCSIEPLLVGEFKKNNSNYGAVLTNRSTPQAFSHFTYELSNKQMIVVDIQGVDDLYTDPQIHTPDGKGFGLGNLGKAGINKFITTHKCNAVCALLDLDVKLGGVLSGNNKKQLQQGTMVMPDILPELMPSDNT
modifications: phosphothreonine at 612 (P-Thr612); phosphoaspartate at 663 (P-Asp663)
notes: α-kinase domain and Thr825 autophosphorylation site of MHCK-A
ATPase Activity kcat [6]: 0.0317 ± 0.0017 s⁻¹
Kinase Activity kcat [7]: 0.0967 ± 0.0067 s⁻¹
